Consider three molecules from patent US20230051847A1 (Johns Hopkins, published 2023).

The target in assay [1] is T1, RAS Q61WT[55-64] pHLA-A1 (human).
T1 construct: also called Q61WT pHLA-A1; H/K/N RAS WT(55-64) peptide on HLA-A1
In words: ELISA, scDb at 10 nM on titrated biotinylated pHLA-A1 on streptavidin plate; protein L, anti-protein L HRP. In general terms: ELISA stands for enzyme-linked immunosorbent assay.

In assay [2] the target is T1, RAS Q61WT[55-64] pHLA-A1. The assay is described as above. This is another data set of the same source.
Assay [3] addresses T2, CHD4 peptide (…) on HLA-A1 (human).
T2 construct: whole, on cells; on peptide-pulsed SigM5 cells
In words: co-culture of peptide-pulsed SigM5 cells with T cells and L2-U scDb; IFNγ release.
Method: (A) Each amino acid of the G12V peptide was systematically changed to the other 19 amino acids. T2A3 cells were pulsed with 10 μM of the G12V peptide library. […] Cells were incubated for 24 hour and assayed for secreted IFNγ. […] Cells were incubated for 24 hours and assayed for secreted IFNγ. […] Cells were incubated for 24 hours and assayed for secreted IFNγ.
The library of peptides was generated by systematically substituting each amino acid of the original peptides with the other 19 amino acids. […] Recognition of the variant peptides was evaluated through IFNγ release (FIG. 44, A and B, FIG. 63, A and B). […] Next, using a 20% cognate peptide reactivity as a cutoff for permissive amino acids at each position, decamer binding motifs were generated for each candidate target peptide (Materials and Methods).

Assay [4] concerns the target T1, RAS Q61WT[55-64] pHLA-A1. The assay is described as follows: ELISA, scDb at 10 nM on titrated biotinylated pHLA-A1 on streptavidin plate; protein L, anti-protein L HRP. This is another data set of the same source.

Where two headings read alike, the source gives them in different places.

B1: R6-U scDb (bispecific antibody)
chain: DIQMTQSPSSLSASVGDRVTITCRASQDVNTAVAWYQQKPGKAPKLLIYSASFLYSGVPSRFSGSRSGTDFTLTISSLQPEDFATYYCQQYSNYPLTFGQGTKVEIKGGGGSEVQLQQSGPELVKPGASMKISCKASGYSFTGYTMNWVKQSHGKNLEWMGLINPYKGVSTYNQKFKDKATLTVDKSSSTAYMELLSLTSEDSAVYYCARSGYYGDSDWYFDVWGAGTTVTVSSGGGGSGGGGSGGGGSDIQMTQTTSSLSASLGDRVTISCRASQDIRNYLNWYQQKPDGTVKLLIYYTSRLHSGVPSKFSGSGSGTDYSLTISNLEQEDIATYFCQQGNTLPWTFAGGTKLEIKGGGGSEVQLVESGGGLVQPGGSLRLSCAASGFNVFYGSMHWVRQAPGKGLEWVAFIGPDSTYTYYADSVKGRFTISADTSKNTAYLQMNSLRAEDTAVYYCSRDLGSAYAMDYWGQGTLVTVSSHHHHHH
As for B1, the binding result with RAS Q61WT[55-64] pHLA-A1 [1] is “no binding (tested: 10 ug/mL coated pHLA-A1, scDb at 10 nM)”.

B2: H1-U scDb (bispecific antibody)
chain: DIQMTQSPSSLSASVGDRVTITCRASQDVNTAVAWYQQKPGKAPKLLIYSASFLYSGVPSRFSGSRSGTDFTLTISSLQPEDFATYYCQQVIYYPFTFGQGTKVEIKGGGGSEVQLQQSGPELVKPGASMKISCKASGYSFTGYTMNWVKQSHGKNLEWMGLINPYKGVSTYNQKFKDKATLTVDKSSSTAYMELLSLTSEDSAVYYCARSGYYGDSDWYFDVWGAGTTVTVSSGGGGSGGGGSGGGGSDIQMTQTTSSLSASLGDRVTISCRASQDIRNYLNWYQQKPDGTVKLLIYYTSRLHSGVPSKFSGSGSGTDYSLTISNLEQEDIATYFCQQGNTLPWTFAGGTKLEIKGGGGSEVQLVESGGGLVQPGGSLRLSCAASGFNLYSYAIHWVRQAPGKGLEWVALLYPDYGVTSYADSVKGRFTISADTSKNTAYLQMNSLRAEDTAVYYCSRYRSYEYSVSSYSYSAMDYWGQGTLVTVSSHHHHHH
Take B2: in the assay with RAS Q61WT[55-64] pHLA-A1 [2], the binding result was “no binding (tested: 10 ug/mL coated pHLA-A1, scDb at 10 nM)”.

B3: L2-U scDb (bispecific antibody)
chain: DIQMTQSPSSLSASVGDRVTITCRASQDVNTAVAWYQQKPGKAPKLLIYSASFLYSGVPSRFSGSRSGTDFTLTISSLQPEDFATYYCQQAVSYPWTFGQGTKVEIKGGGGSEVQLQQSGPELVKPGASMKISCKASGYSFTGYTMNWVKQSHGKNLEWMGLINPYKGVSTYNQKFKDKATLTVDKSSSTAYMELLSLTSEDSAVYYCARSGYYGDSDWYFDVWGAGTTVTVSSGGGGSGGGGSGGGGSDIQMTQTTSSLSASLGDRVTISCRASQDIRNYLNWYQQKPDGTVKLLIYYTSRLHSGVPSKFSGSGSGTDYSLTISNLEQEDIATYFCQQGNTLPWTFAGGTKLEIKGGGGSEVQLVESGGGLVQPGGSLRLSCAASGFNISSSGIHWVRQAPGKGLEWVAMVYGGSGYTNYADSVKGRFTISADTSKNTAYLQMNSLRAEDTAVYYCSRWAHYSAYMDYWGQGTLVTVSSHHHHHH
notes: also called L2 single chain diabody; H/K/N RAS Q61L(55-64)-A1 cl.2 UCHT1 scDb
In the case of B3, the binding result in assay [3] is given as “no binding (tested: 1 nM scDb)”; with RAS Q61WT[55-64] pHLA-A1 [4] it was “no binding (tested: 10 ug/mL coated pHLA-A1, scDb at 10 nM)”.
